Test results taken from patent US20200199196A1 (WASHINGTON UNIVERSITY, published 2020).
Residue numbers refer to the chain shown, from its start. In names and notes the source's numbering stands.

Key:
[1] = target: T1, monomeric RANK (monomeric fragment of RANK) (UniProt O35305 31-214, limits assumed); experiment: yeast surface display, flow cytometry titration (FIG. 13)
T1 construct: The monomeric RANK of the SPR and the RANK-6xHis of the yeast display are treated here as one molecule; also called RANK-6xHis; RANK-6His
T1 sequence (looked up): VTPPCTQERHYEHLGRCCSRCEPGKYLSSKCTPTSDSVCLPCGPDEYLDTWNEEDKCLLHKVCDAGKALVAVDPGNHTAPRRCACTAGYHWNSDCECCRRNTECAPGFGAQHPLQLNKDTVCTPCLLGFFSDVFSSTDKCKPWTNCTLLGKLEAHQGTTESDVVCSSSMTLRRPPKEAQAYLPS

[2] = target: T2, monomeric OPG (monomeric fragment of OPG) (UniProt O08712 22-197, limits assumed); experiment: yeast surface display, flow cytometry titration (FIG. 13A)
T2 construct: also called OPG-6xHis; unlabeled OPG
T2 sequence (looked up): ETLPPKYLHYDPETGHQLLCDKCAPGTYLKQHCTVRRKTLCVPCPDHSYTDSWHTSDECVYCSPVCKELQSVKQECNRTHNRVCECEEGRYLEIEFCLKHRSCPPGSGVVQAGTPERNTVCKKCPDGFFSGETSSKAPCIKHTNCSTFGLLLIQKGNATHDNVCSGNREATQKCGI

[3] = target: T3, RANK on mouse bone marrow macrophages (BMMs) (mouse, UniProt O35305 31-625); experiment: cell-based or functional assay
T3 sequence (looked up): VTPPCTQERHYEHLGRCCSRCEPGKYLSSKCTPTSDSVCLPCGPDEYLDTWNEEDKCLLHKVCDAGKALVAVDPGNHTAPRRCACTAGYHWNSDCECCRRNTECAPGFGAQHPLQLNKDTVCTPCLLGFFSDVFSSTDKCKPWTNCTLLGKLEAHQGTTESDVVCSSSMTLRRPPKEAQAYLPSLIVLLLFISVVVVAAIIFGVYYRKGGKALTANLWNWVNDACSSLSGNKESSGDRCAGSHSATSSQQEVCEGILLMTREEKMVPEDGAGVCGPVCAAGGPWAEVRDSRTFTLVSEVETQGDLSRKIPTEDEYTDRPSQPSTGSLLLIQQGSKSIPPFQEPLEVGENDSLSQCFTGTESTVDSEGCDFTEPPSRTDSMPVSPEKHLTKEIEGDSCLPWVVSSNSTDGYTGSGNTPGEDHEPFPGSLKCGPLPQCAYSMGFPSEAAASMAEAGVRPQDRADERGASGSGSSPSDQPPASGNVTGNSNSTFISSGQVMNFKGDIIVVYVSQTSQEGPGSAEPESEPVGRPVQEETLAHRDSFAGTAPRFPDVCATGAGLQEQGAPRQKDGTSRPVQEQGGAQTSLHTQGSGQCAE

[4] = target: T2, monomeric OPG (monomeric fragment of …); experiment: SPR (FIG. 11)
[5] = target: T4, monomeric OPG (monomeric fragment of OPG) (UniProt O08712 22-197); experiment: SPR
T4 chain: T2 sequence (looked up)

[6] = target: T4, monomeric OPG (monomeric fragment of …); experiment: SPR
[7] = target: T5, monomeric RANK (monomeric fragment of RANK) (UniProt O35305 31-214); experiment: SPR
T5 chain: T1 sequence (looked up)

[8] = target: T5, monomeric RANK (monomeric fragment of …); experiment: SPR
[9] = target: T4, monomeric OPG (monomeric fragment of …); experiment: yeast surface display titration
[10] = target: T1, monomeric RANK (monomeric fragment of …); experiment: SPR, htRANKL coupled to the chip, monomeric RANK as analyte (FIG. 3C)
[11] = target: T5, monomeric RANK (monomeric fragment of …); experiment: yeast surface display titration
[12] = target: T2, monomeric OPG (monomeric fragment of …); experiment: yeast surface display, flow cytometry titration (FIG. 3B)
[13] = target: T1, monomeric RANK (monomeric fragment of …); experiment: SPR, htRANKL variant coupled to the chip, monomeric RANK as analyte (FIG. 3C)

B1: CDins/Q236H htRANKL (CDins combined with the Q236H mutation) (ligand)
chain: QPFAHLTINAASIPSGSHKVTLSSWYHDRGWAKISNMTLSNGKLRVNQDGFYYLYANISFRGGSHHETSGSVPTDYLHLMVYVVKTSEKIPSSHNLMKGGSTKNWSGNSEFHFYSINVGGFFKLRAGEEISIQVSNPSLLDPDQDATYFGAFKVQDID
notes: also called variant RANKL that combined CDins with the Q236H mutation
B1: no binding [1]; no binding [2].

B2: double-block, RANK^high scRANKL (ligand)
chain: QPFAHLTINAASIPSGSHKVTLSSWYHDRGWAKISNMTLSNGKLRVNQDGFYYLYANISFRGGSHHETSGSVPTDYLHLMVYVVKTSEKIPSSHNLMKGGSTKNWSGNSEFHFYSINVGGFFKLRAGEEISIQVSNPSLLDPDQDATYFGAFKVQDIDGGSGGGSGGGSGQPFAHLTINAASIPSGSHKVTLSSWYHDRGWAKISNMTLSNGKLRVNQDGFYYLYANISFRGGSHHETSGSVPTDYLHLMVYVVKTSEKIPSSHNLMKGGSTKNWSGNSEFHFYSINVGGFFKLRAGEEISIQVSNPSLLDPDQDATYFGAFKVQDIDGGSGGGSGGGSGQPFAHLTINAASIPSGSHKVTLSSWYHDRGWAEISNMTLSNGKLRVNQDGFYYLYANISFRHHETSGSVPTDYLHLMVYVVKTSEKIPSSHNLMKGGSTKNWSGNSEYYFYSINVGGFFKLRAGEEISIQVSNPSLLDPDQDATYFGAFKVQDIDSSGRENLYFQ
In the case of B2, the “IC50 of inhibition of signaling / osteoclast formation stimulated by wild-type htRANKL (TRAP activity, FIG. 4D)” value [3] is reported as about 10 nM.

B3: single-block, RANK^high scRANKL (ligand)
chain: QPFAHLTINAASIPSGSHKVTLSSWYHDRGWAKISNMTLSNGKLRVNQDGFYYLYANISFRGGSHHETSGSVPTDYLHLMVYVVKTSEKIPSSHNLMKGGSTKNWSGNSEFHFYSINVGGFFKLRAGEEISIQVSNPSLLDPDQDATYFGAFKVQDIDGGSGGGSGGGSGQPFAHLTINAASIPSGSHKVTLSSWYHDRGWAEISNMTLSNGKLRVNQDGFYYLYANISFRHHETSGSVPTDYLHLMVYVVKTSEKIPSSHNLMKGGSTKNWSGNSEYYFYSINVGGFFKLRAGEEISIQVSNPSLLDPDQDATYFGAFKVQDIDGGSGGGSGGGSGQPFAHLTINAASIPSGSHKVTLSSWYHDRGWAEISNMTLSNGKLRVNQDGFYYLYANISFRHHETSGSVPTDYLHLMVYVVKTSEKIPSSHNLMKGGSTKNWSGNSEYYFYSINVGGFFKLRAGEEISIQVSNPSLLDPDQDATYFGAFKVQDIDSSGRENLYFQ
In the case of B3, the “IC50 of inhibition of signaling / osteoclast formation stimulated by wild-type htRANKL (TRAP activity, FIG. 4D)” value [3] is reported as 0.2 nM.

B4: WT-SM htRANKL (homotrimeric mouse RANKL with the solubility mutations C220S/I246E) (ligand)
chain: QPFAHLTINAASIPSGSHKVTLSSWYHDRGWAKISNMTLSNGKLRVNQDGFYYLYANISFRHHETSGSVPTDYLQLMVYVVKTSEKIPSSHNLMKGGSTKNWSGNSEFHFYSINVGGFFKLRAGEEISIQVSNPSLLDPDQDATYFGAFKVQDID
notes: The format differs by assay; also called WT-SM RANKL; WT htRANKL
With B4 the “fold decrease in binding against WT htRANKL without the solubility mutations” value [4] was about 10 fold, the Kd [5] was 30.5 nM and the Kd [6] was 30.5 nM. The Kd [7] was 1400 nM, the Kd [8] was 1400 nM and the Kd [9] was about 32.8 nM. The “t1/2 (dissociation time)” value [10] was 0.05 min.

B5: wild-type homotrimeric RANKL without the solubility mutations (WT htRANKL as compared with WT-SM htRANKL in FIG. 5 and FIG. 11) (ligand)
chain: B4 chain with S59C, E85I
For B5, the Kd [5] was 4.75 nM and the Kd [7] was 1230 nM.

B6: KQF htRANKL (K194E, Q236H, F269Y) (ligand)
chain: B4 chain with K33E, Q75H, F108Y
B6 gave a Kd [11] of about 23.6 nM.

B7: KQFH htRANKL (K194E, Q236H, F269Y, H270Y) (ligand)
chain: B4 chain with K33E, Q75H, F108Y, H109Y
notes: also called RANK^high variant
For B7, the Kd [8] was 3.37 nM, the binding result [12] was “no binding” and the Kd [11] was about 1.4 nM. The “fold greater affinity than wild-type htRANKL” value [13] was about 500 fold, the “fold longer dissociation time than WT htRANKL” value [13] was 200 fold and the “t1/2 (dissociation time)” value [13] was 11.2 min.

B8: K/Q (protein)
chain: MRRASRDYGKYLRSSEEMGSGPGVPHEGPLHPAPSAPAPAPPPAASRSMFLALLGLGLGQVVCSIALFLYFRAQMDPNRISEDSTHCFYRILRLHENADLQDSTLESEDTLPDSCRRMKQAFQGAVQKELQHIVGPQRFSGAPAMMEGSWLDVAQRGKPEAQPFAHLTINAASIPSGSHKVTLSSWYHDRGWAEISNMTLSNGKLRVNQDGFYYLYANICFRHHETSGSVPTDYLHLMVYVVKTSIKIPSSHNLMKGGSTKNWSGNSEFHFYSINVGGFFKLRAGEEISIQVSNPSLLDPDQDATYFGAFKVQDID
B8 was tested, and the Kd [11] was about 69.7 nM.

B9: F269Y (protein)
chain: B8 chain with E194K, H236Q, F269Y
B9 gave a Kd [9] of about 33.3 nM.

B10: K194E (protein)
chain: B8 chain with H236Q
B10 was tested, and the Kd [9] was about 71.7 nM.

B11: H270Y (protein)
chain: B8 chain with E194K, H236Q, H270Y
For B11, the Kd [9] was about 276 nM and the Kd [11] was about 465 nM.

B12: Q236H (protein)
chain: B8 chain with E194K
B12 gave a Kd [11] of about 346 nM.
